The text below walks through data of US6479638.

Where only a bound is given, the exact number is not on record here.

The target in experiment [1] is DNAX Leukocyte Associated Immunoglobulin-like Receptor (DLAIR-1) (human) (UniProt Q6GTX8). Nature of the experiment: flow cytometry (FACScan) on HL60 promyeloid tumor cells, PE goat-anti-mouse-IgG second step. (A flow cytometer gives signals particle by particle.)
Experiment [2] has the same target. The experiment can be described thus: flow cytometry (FACScan) on CEM T cell tumor cells, PE goat-anti-mouse-IgG second step.
The target is the same in experiment [3]. Nature of the experiment: flow cytometry (FACScan) on U937 myeloid tumor cells, PE goat-anti-mouse-IgG second step.
Experiment [4] shares this target. Nature of the experiment: flow cytometry (FACScan) on Jurkat T cell tumor cells, PE goat-anti-mouse-IgG second step.
For experiment [5] the target is unchanged. The experiment can be described thus: flow cytometry (FACScan) on Peer T cell tumor cells, PE goat-anti-mouse-IgG second step.
For experiment [6] the target is unchanged. The experiment can be described thus: flow cytometry (FACScan) on Molt4 T cell tumor cells, PE goat-anti-mouse-IgG second step.
Experiment [7] shares this target. The experiment can be described thus: flow cytometry (FACScan) on HUT78 T cell tumor cells, PE goat-anti-mouse-IgG second step.

On to control IgG1 (antibody), for which the mean fluorescence intensity in experiment [1], in experiment [2], in experiment [3], in experiment [4], in experiment [5] and in experiment [6] was below 5 in each case.
Take DX26 monoclonal antibody: the mean fluorescence intensity was found to be 46.9 in experiment [1]; 25.8 in experiment [7]; 92.7 in experiment [2]; 49.5 in experiment [3]; 47.1 in experiment [4]; 29.1 in experiment [5]. This substance also gave a mean fluorescence intensity in experiment [6] of 30.7.
